Sequences and labels used below:
B1: C2 (peptide)
peptide: KKQVLAMEHLVT
modifications: not fully specified
B2: VEPEP-3a (peptide)
peptide: XKWFERWFREWPRKRR
HELM: PEPTIDE1{[ac].[bAla].K.W.F.E.R.W.F.R.E.W.P.R.K.R.R.[SCCN[*:1]]}$$$$V2.0
SMILES: CC(=O)NCCC(=O)N[C@@H](CCCCN)C(=O)N[C@@H](Cc1c[nH]c2ccccc12)C(=O)N[C@@H](Cc1ccccc1)C(=O)N[C@@H](CCC(=O)O)C(=O)N[C@@H](CCCNC(=N)N)C(=O)N[C@@H](Cc1c[nH]c2ccccc12)C(=O)N[C@@H](Cc1ccccc1)C(=O)N[C@@H](CCCNC(=N)N)C(=O)N[C@@H](CCC(=O)O)C(=O)N[C@@H](Cc1c[nH]c2ccccc12)C(=O)N1CCC[C@H]1C(=O)N[C@@H](CCCNC(=N)N)C(=O)N[C@@H](CCCCN)C(=O)N[C@@H](CCCNC(=N)N)C(=O)N[C@@H](CCCNC(=N)N)C(=O)NCCS
notes: Synthetic cell-penetrating peptide
B3: C4 (peptide)
peptide: KKQVRMAHLVLT
modifications: not fully specified
B4: PC4, also noted PC4D (peptide)
peptide: RWTEWEWW
modifications: also: cyclic version, linkage not given here

One test has as its target cdk2/cyclin A complex (UniProt P24941 1-298; P20248 1-432). Kind of test: cell-based or functional assay.
In the test “PC4, also noted PC4D” the target is B4. The experiment in a line: fluorescence titration, curve fitting.
The target of the test “C4” is B3. The experiment in a line: fluorescence titration, curve fitting.
The test “C2” has as its target B1. Kind of test: fluorescence titration, curve fitting.
The target in the next test is CDK4/cyclin D complex (UniProt P11802 2-303). The experiment in a line: cell-based or functional assay.
The next test has as its target HIV integrase (HIV-1-LAI, UniProt P03367 1160-1447). The experiment in a line: cell-based or functional assay.

We go through five molecules from US20190046652A1 (AADIGEN, published 2019).

Ends that are not written are not given here.

As usually defined, the Kd is the constant that tells how readily two partners part at equilibrium. Read a low Kd as tighter binding.

CDK4/cyclin D complex, sequence (P11802 2-303, one chain of several): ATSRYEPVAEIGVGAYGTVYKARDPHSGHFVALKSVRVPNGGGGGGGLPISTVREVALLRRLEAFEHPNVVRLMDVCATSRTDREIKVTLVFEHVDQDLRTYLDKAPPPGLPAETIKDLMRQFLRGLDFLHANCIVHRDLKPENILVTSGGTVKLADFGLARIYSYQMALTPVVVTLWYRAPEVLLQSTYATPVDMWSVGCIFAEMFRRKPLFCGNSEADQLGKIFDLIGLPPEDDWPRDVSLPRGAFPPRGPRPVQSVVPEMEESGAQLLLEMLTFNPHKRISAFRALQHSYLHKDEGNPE

Consider B1, for which, in the test with cdk2/cyclin A complex, the “IC50, proliferation of HEK-2 cells (C2 delivered by VEPEP-3)” value amounted to 102 nM and the “IC50, proliferation of Hela cells (C2 delivered by VEPEP-3)” value turned out to be 37 nM.

On to B2, for which the Kd with PC4, also noted PC4D was 50 to 100 nM. Besides, the binding result in the test with C4 and in the test with C2 was “binds” throughout.

With B3, in the test with CDK4/cyclin D complex, the “IC50, proliferation of HEK-2 cells (C4 delivered by VEPEP-3)” value was determined as 78 nM; the “IC50, proliferation of Hela cells (C4 delivered by VEPEP-3)” value was 35 nM; the “IC50, proliferation of MCF7 cells (C4 delivered by VEPEP-3)” value worked out at 58 nM.

For the molecule B4, the “IC50, antiviral activity (RT activity in supernatants of HIV-1 LAI infected PBMC), peptide with VEPEP-3 carrier” value with HIV integrase was 0.12 nM.

With KWETWWET [PC6, also noted PC6D], the “IC50, antiviral activity (RT activity in supernatants of HIV-1 LAI infected PBMC), peptide with VEPEP-3 carrier” value in the test with HIV integrase stood at 0.09 nM.
